In patent US20030022260:

How the values were obtained:
[1] = system: HA-E2F-5/DP-1 in cells (Homo sapiens); experiment: cell_activity; conditions: U2-OS CAT reporter; E2F-5 plus DP-1
[2] = biological target: GAD-E2F-5/LexA-DP-1 in yeast (Mus musculus) (UniProt Q61502+Q08639); experiment: cell_activity; conditions: yeast lacZ reporter
Sequence of GAD-E2F-5/LexA-DP-1 in yeast (Mus musculus) (Q61502 whole entry, chain 1 of 2): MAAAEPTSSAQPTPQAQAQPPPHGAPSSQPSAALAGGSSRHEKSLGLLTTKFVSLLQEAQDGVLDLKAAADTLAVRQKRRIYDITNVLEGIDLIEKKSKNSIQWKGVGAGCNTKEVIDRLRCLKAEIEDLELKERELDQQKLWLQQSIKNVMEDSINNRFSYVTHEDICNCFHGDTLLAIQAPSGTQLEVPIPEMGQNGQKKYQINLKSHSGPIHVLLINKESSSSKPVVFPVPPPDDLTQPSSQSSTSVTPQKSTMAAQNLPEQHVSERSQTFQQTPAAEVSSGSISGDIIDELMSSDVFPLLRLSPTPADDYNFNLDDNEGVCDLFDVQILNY
Sequence of GAD-E2F-5/LexA-DP-1 in yeast (Mus musculus) (Q08639 whole entry, chain 2 of 2): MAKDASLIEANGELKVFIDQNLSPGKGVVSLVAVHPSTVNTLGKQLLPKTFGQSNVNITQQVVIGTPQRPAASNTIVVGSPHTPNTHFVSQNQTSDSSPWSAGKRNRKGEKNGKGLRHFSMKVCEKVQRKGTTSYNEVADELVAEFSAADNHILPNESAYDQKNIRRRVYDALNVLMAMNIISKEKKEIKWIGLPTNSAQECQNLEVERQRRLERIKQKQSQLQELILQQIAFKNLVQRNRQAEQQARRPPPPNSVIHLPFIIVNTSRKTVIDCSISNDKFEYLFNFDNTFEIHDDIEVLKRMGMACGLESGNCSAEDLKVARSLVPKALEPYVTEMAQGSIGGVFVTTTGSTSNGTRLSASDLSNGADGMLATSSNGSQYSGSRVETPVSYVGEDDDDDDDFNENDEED

Question: Which activity (fold activation) [1] does the source give for E2F4-CAT reporter, four E2F sites here?
Answer: > 100

Question: With “p4xWT CYC1 reporter, four wild-type E2F sites” as the substance, how does the activity (fold activation) [2] read?
Answer: > 6
